Target: styrene oxide isomerase (SOI), Pseudomonas sp. VLB120, wild type (Pseudomonas sp. VLB120, UniProt O50216)
Assay: cell-based or functional assay

catalytic efficiency (kcat/KM) for (S)-styrene oxide of the SOI–NB complex compared to the wild-type enzyme, coupled enzyme assay with EcALDH: 3 fold
B1: nanobody (NB) raised against SOI, used for structure determination (VHH)
VHH: QGQLVESGGGLVQAGGSLRLSCTGSGRAFVTPAVGWFRQAPGKEREFVGTINWSGSHTSYADPVKGRFTISRDNAKETVYLQMNNLKPEDADVYYCASRGVSGRYEYWGKGTPVTVSS

— publication PMC11374702, “Structural basis of the Meinwald rearrangement catalysed by styrene oxide isomerase” (Nature Chemistry, 2024)
